Key:
[1] = target: T1, human IL-1 Beta (human, UniProt P01584 117-269, biotinylated in the Fab, phage and competition ELISAs); assay: ELISA based competition assay; competitor: antagonistic reference mouse mAb
T1 construct: also called biot-IL-1 Beta; biotinylated IL-1 Beta
Target sequence in this assay (P01584 117-269 limits assumed): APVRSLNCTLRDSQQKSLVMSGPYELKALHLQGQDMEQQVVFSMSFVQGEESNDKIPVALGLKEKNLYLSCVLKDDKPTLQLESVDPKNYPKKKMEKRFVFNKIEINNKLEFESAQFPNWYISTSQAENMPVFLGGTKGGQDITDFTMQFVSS

[2] = target: T1, human IL-1 Beta; assay: cell-based or functional assay
Target sequence in this assay (P01584 117-269 limits assumed): as above

[3] = target: T1, human IL-1 Beta; assay: competition ELISA, periplasmic Fab extract; competitor: coated blocking mouse mAb; OD of biot-IL-1 Beta bound
Target sequence in this assay (P01584 117-269 limits assumed): as above

[4] = target: T2, neutravidin (UniProt P02701 25-152); assay: phage ELISA on neutravidin coated wells, crude phage extract, anti-M13-HRP
T2 construct: Capture protein of the phage ELISA, tested alone as the negative control
T2 sequence (P02701 25-152): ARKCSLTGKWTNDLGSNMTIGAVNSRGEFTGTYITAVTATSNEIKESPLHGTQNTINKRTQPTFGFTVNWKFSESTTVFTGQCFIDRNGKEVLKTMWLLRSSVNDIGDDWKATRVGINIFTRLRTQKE
Procedure: (§1) The humanized variants of clone 1F2 were tested with phage expressing gene3-Fabs fusions (FIG. 4). Phage were produced from 4 independent clones for each construct: [0462] wt 1F2 and wt 1E2 (llama Vλ and VH fused to human CA and CH1) [0463] safe variant 1F2 and safe variant 1E2 (partially humanized Vλ fused to human CA and CH1) [0464] hum 1F2 and hum 1E2 (fully humanized Vλ and VH fused to human CA and CH1)
(§2) Four clones for each Fab were tested to overcome clonal variation (due to bacterial growth, phage production efficiency and toxicity etc. . . . ). Phage ELISA was performed by capturing of biotinylated IL-1 Beta on neutravidin coated Maxisorp plate and subsequent incubation of crude phage extract (i.e. bacterial medium). After extensive washing, bound phages were detected with an anti-M13-HRP monoclonal antibody. […] [0466] Back mutations in the framework regions of 1F2 VL and VH domains to the closest human germline successfully yield partially (safe) and fully (hum) humanized variants, maintaining antigen specificity. Successful Formatting of Camelid Variable Domains with Human Constant Domains

[5] = target: T1, human IL-1 Beta; assay: phage ELISA: biot-IL-1 Beta captured on neutravidin, crude phage, anti-M13-HRP
Procedure: as §1, §2

[6] = target: T1, human IL-1 Beta; assay: ELISA: Fab captured on anti-myc plate, biot-IL-1 Beta, streptavidin-HRP
Procedure: For this the Fabs were captured on an anti-myc coated Maxisorp plate. Biotinylated human IL-1 Beta was added and bound cytokine was detected using HRP-conjugated streptavidin.
The genes of these Fabs were ordered as synthetic genes with GeneArt (Germany) and were subsequently produced in E. coli, purified and tested for their ability to bind biot-IL-1 Beta. For this the Fabs were captured on an anti-myc coated Maxisorp plate. Biotinylated human IL-1 Beta was added and bound cytokine was detected using HRP-conjugated streptavidin. The read out of this assay is represented in FIG. 3 below. [0459] […] [0460] Partial (wt Vλ/safe VH) and complete (wt Vλ/hum VH) humanization of the VH domain of 1E2 generated a functional Fab.

Row | Binder | OD [3] [OD] | binding result [6] | also measured
1 | Fab 1A1 (Fab, part only; not given: lambda light chain, V domains shown, not shown: a dimerising Fc or GST) VH: EVQLVESGGGLVQPGGSLRLSCAASGFTFDDYAMSWVRQAPGKGLEWVSTISWNGGATYYAESMKGRFTISRDNAKNTLYLQMNSLKSEDTAVYYCAKPYYSDYVGVEYDYWGQGTQVTVSS | 0.205 | – | IC50 [1]: 12 µg/mL; IC50 in the bioassay [2]: 10 µg/mL
2 | hum 1F2 (fully humanized Vλ and VH fused to human Cλ and CH1), phage expressing gene3-Fab fusion (Fab, V domains shown, also called fully (hum) humanized 1F2) VH: EVQLLESGGGLVQPGGSLRLSCAASGFTFSTYAMSWVRQAPGKGLEWVSGINTGGGSTGYADSVKGRFTISRDNSKNTLYLQMNSLRAEDTAVYYCAKDWMATTPWGQGTLVTVSS VL: QTVVTQEPSFSVSPGGTVTLTCGLSSGSVTTNNYPGWYQQTPGQAPRTLIYNTNNRSSGVPDRFSGSILGNKAALTITGAQADDESDYYCALYMSSGSNNAVFGGGTKLTVL | – | – | binding result [4]: no binding; binding result [5]: binds
3 | Fab 1B3 (Fab, part only; not given: lambda light chain, V domains shown, not shown: a dimerising Fc or GST) VH: EVQLVQSGAELRNPGASVKVSCKASGYTFTSYYIDWVRQAPGQGLEWMGRIDPEDGGTKYAQKFQGRVTFTADTSTSTAYVELSSLRSEDTAVYYCARSGRYELDYWGQGTQVTVSS | 0.444 | – | –
4 | Fab 1G1 (Fab, part only; not given: lambda light chain, V domains shown, not shown: a dimerising Fc or GST) VH: EVQLVQSGAELRNPGASVKVSCKASGYTFTSYYTDWVRQAPGQGLEWMGRIDPEDGDTKYAQKFQGRVTFTADTSTSTAYVELTSLRSEDTAVYYCLRSGAYELDYWGQGTQVTVSS | 0.498 | – | –
5 | Fab 1C3 (Fab, part only; not given: lambda light chain, V domains shown, not shown: a dimerising Fc or GST) VH: EVQLVESGGGLVQPGGSLRLSCAASGFTFSSYWMYWVRQAPGKGLEWVSAINTGGGRTYYADSVKGRFTISRDNAKNTLYLQMNSLKSEDTAVYYCAKGTSADGSSWYVPADPYDYWGQGTQVTVSS | 0.386 | – | concentration at which competition is seen [1]: > 50 µg/mL; IC50 in the bioassay [2]: 3 µg/mL
6 | wild type llama 1E2 Fab (Fab, V domains shown, Llama variable and llama constant domains, produced from pCB3; captured through its myc tag; also called Fab 1E2) VH: EVQLVESGGGLVQPGGSLRLSCTASGFTFSNYWMYWVRQAPGKGLEWVSAINAAGSTYYADSVKGRFTISRDNAKNTLYLQMNSLQSEDTALYYCANLPRWGQGTQVTVSS VL: QTVVTQEPSLSVSPGGTVTLTCGLSSGSVTSGNYPGWYQQKPGQAPRTLIYNTNSRYSGVPNRFSGSISGNKAALTITGAQPEDEADYYCAVYIGSSSYPVVFGGGTHLTVL | – | binds | –
7 | hum 1E2 (fully humanized Vλ and VH fused to human Cλ and CH1), phage expressing gene3-Fab fusion (Fab, V domains shown) VH: EVQLVESGGGLVQPGGSLRLSCAASGFTFSNYWMYWVRQAPGKGLEWVSAINAAGSTYYADSVKGRFTISRDNSKNTLYLQMNSLRAEDTAVYYCANLPRWGQGTLVTVSS VL: QTVVTQEPSFSVSPGGTVTLTCGLSSGSVTSGNYPGWYQQTPGQAPRTLIYNTNSRSSGVPDRFSGSILGNKAALTITGAQADDESDYYCAVYIGSSSYPVVFGGGTKLTVL | – | – | binding result [4]: no binding
8 | wt 1E2 (llama Vλ and VH fused to human Cλ and CH1), phage expressing gene3-Fab fusion (Fab, V domains shown) VH: EVQLVESGGGLVQPGGSLRLSCTASGFTFSNYWMYWVRQAPGKGLEWVSAINAAGSTYYADSVKGRFTISRDNAKNTLYLQMNSLQSEDTALYYCANLPRWGQGTQVTVSS VL: QTVVTQEPSLSVSPGGTVTLTCGLSSGSVTSGNYPGWYQQKPGQAPRTLIYNTNSRYSGVPNRFSGSISGNKAALTITGAQPEDEADYYCAVYIGSSSYPVVFGGGTHLTVL | – | – | binding result [4]: no binding
9 | chimeric 1E2 Fab (llama Vλ and VH fused to human Cλ and CH1) (Fab, V domains shown, VH fused to human CH1, Vλ fused to human Cλ; produced in E. coli from pCB5; myc tag; also called wt 1E2) VH: EVQLVESGGGLVQPGGSLRLSCTASGFTFSNYWMYWVRQAPGKGLEWVSAINAAGSTYYADSVKGRFTISRDNAKNTLYLQMNSLQSEDTALYYCANLPRWGQGTQVTVSS VL: QTVVTQEPSLSVSPGGTVTLTCGLSSGSVTSGNYPGWYQQKPGQAPRTLIYNTNSRYSGVPNRFSGSISGNKAALTITGAQPEDEADYYCAVYIGSSSYPVVFGGGTHLTVL | – | binds | –
10 | 1E2 Fab wt Vλ/hum VH (Fab, V domains shown, also called wt/hum) VH: EVQLVESGGGLVQPGGSLRLSCAASGFTFSNYWMYWVRQAPGKGLEWVSAINAAGSTYYADSVKGRFTISRDNSKNTLYLQMNSLRAEDTAVYYCANLPRWGQGTLVTVSS VL: QTVVTQEPSLSVSPGGTVTLTCGLSSGSVTSGNYPGWYQQKPGQAPRTLIYNTNSRYSGVPNRFSGSISGNKAALTITGAQPEDEADYYCAVYIGSSSYPVVFGGGTHLTVL | – | binds | –
11 | 1E2 Fab wt Vλ/safe VH (Fab, V domains shown, also called wt/safe) VH: EVQLVESGGGLVQPGGSLRLSCAASGFTFSNYWMYWVRQAPGKGLEWVSAINAAGSTYYADSVKGRFTISRDNSKNTLYLQMNSLQSEDTAVYYCANLPRWGQGTQVTVSS VL: QTVVTQEPSLSVSPGGTVTLTCGLSSGSVTSGNYPGWYQQKPGQAPRTLIYNTNSRYSGVPNRFSGSISGNKAALTITGAQPEDEADYYCAVYIGSSSYPVVFGGGTHLTVL | – | binds | –

— patent US20150057436A1 (ARGEN X, published 2015)
